The record followed here is patent publication WO2020148554A1 (dated 2020).

B1: 6662 (antibody, V domains shown)
VH: EVQLVESGGGLVKPGGSLRLSCAASGFGFSSAWMNWVRQAPGKGLEWVGRIKSKTDGGKTDYAAPVKGRFIMSRDDSKNTLYLQMNSLKTEDAGVYYCTTRIVLNGMDVWGQGTLVTVSS
VL: QSVLTQPPSVSGAPGQRVTISCTGSSSNIGAGYDVHWYQQLPGTAPKLLIYANNNRPSGVPDRFSGSKSGTSASLAITGLQAEDEADYYCQSYDSRLSDGVVFGGGTKLTVLG
B2: 66-3-9C (antibody, V domains shown)
VH: EVQLVESGGGLVKPGGSLRLSCAASGFTFSSYNMNWVRQAPGKGLEWVSSITTSSSYIYYAYSVKGRFTISRDNAKNSLYLQMNSLRAEDTAVYYCARFLGYSYGTNYYYYGMDVWGQGTTVTVSS
VL: not shown
B3: 040 (antibody, V domains shown)
VH: QVQLVESGGGFVQPGGSLRLSCAASGFTFSSYAMSWVRQAPGKGLEWVSTISGSGGTTYYADSVKGRFTISRDNSKNTLYLEMITLRAEDTATYFCANSYYYHSSGLLIRWDDMDVWGQGTTVTVSS
VL: DIQMTQSPSSLSASVGDRVTITCRASQGIRNDLGWYQQKPGKAPKRLIYAASSLQSGVPSRFSGSGSGTEFTLTISSLQPEDFATYYCLQHSSYPWTFGQGTKVEIKR
B4: 6541 (antibody, V domains shown)
VH: EVQLVQWGAGLLKPSETLSLTCAVYGGSFSGNYWTWIRQPPGKGLEWIGEINHSGSTNYNPSLKSRVTISVDTSKNQFSLKLSSVTAADTAVYYCATKMGGYGDYWHWYFDLWGRGTMVTVSS
VL: EVVMTQSPATLSVSPGERATLSCRASQSLFTNLAWYQQKPGQAPRLLIYGASTRATGIPARFSGSGSGTDFSLTISRLQSEDFAFYYCQQYNDWPLTFGGGTKVDIKR

The target in this assay is T1, Sudan Gulu glycoprotein (NC_006432.1) expressed on MDCK-SIAT1 cells (Sudan Gulu (SUDV), UniProt Q7T9D9 33-676).
T1 sequence: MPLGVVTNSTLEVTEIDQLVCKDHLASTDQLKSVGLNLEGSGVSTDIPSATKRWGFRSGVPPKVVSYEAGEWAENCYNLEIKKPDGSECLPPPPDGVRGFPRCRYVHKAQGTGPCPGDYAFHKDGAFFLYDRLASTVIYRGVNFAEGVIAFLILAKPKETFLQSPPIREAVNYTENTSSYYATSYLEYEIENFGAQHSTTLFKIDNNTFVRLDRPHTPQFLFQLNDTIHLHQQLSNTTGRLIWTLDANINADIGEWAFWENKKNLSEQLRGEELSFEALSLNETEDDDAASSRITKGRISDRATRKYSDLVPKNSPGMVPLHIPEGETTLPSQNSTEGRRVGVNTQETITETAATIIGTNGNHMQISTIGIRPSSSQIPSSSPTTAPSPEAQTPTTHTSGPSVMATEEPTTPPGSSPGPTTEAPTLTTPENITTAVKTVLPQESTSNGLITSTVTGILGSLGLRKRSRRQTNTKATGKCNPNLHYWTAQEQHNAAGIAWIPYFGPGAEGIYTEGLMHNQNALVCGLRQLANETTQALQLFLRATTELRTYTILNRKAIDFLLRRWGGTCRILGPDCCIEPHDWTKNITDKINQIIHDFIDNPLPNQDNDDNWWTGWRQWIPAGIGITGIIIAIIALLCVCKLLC
The assay can be described thus: indirect immunofluorescence by FACS on MDCK-SIAT1 cells expressing GP.
B1: the binding result is given as “binds”. The entry for B2 is “binds”; for B3 it is “binds”; for B4 it is “binds”.
